From PMC5012548 come the findings set out here.

One data set concerns the target GST-MNK1b (human, UniProt Q9BUB5-3 1-347). The experiment in a line: ELONA.
The target of data set [1] is T1, His-MNK1b (rMNK1b) (UniProt Q9BUB5-3 1-347). Kind of data set: ELONA.
Data set [2] deals with T1, His-MNK1b (rMNK1b). Kind of data set: Ni-NTA pull-down with qPCR.

B1: apMNK3R (ssDNA)
DNA: GTTGCTCGTATTTAGGGCGGGGGTGGGCGGATTTCGCAGGTGGCGTGTACACCAGTCTTCATCCGC
Consider B1, for which binding with GST-MNK1b was characterised by a dissociation constant (Kd) of 6.36 ± 1.72 nM.

B2: apMNK3F (ssDNA)
DNA: GCGGATGAAGACTGGTGTACACGCCACCTGCGAAATCCGCCCACCCCCGCCCTAAATACGAGCAAC
On to B2, for which the binding result with His-MNK1b (rMNK1b) [1] is “binds”.

B3: apMNK2F (ssDNA)
DNA: GCGGATGAAGACTGGTGTGGGGTGGGCGGGCGGGGGTGGGGGTGGTATGGCGCGTTGGCCCTAAATACGAGCAAC
B3: the Kd in the data set with GST-MNK1b amounted to 1.79 ± 0.48 nM.

B4: apMNK1F (ssDNA)
DNA: GCGGATGAAGACTGGTGTACACGCCGAACCCATTGTTCCAGGCGACATGCCCTAAATACGAGCAAC
B4: the binding result with His-MNK1b (rMNK1b) [2] was “binds”.

B5: apMNK4R (ssDNA)
DNA: GTTGCTCGTATTTAGGGCACACACGACGAAGACCTGGCTGCCCGTTGTACACCAGTCTTCATCCGC
B5: the binding result with His-MNK1b (rMNK1b) [2] is “binds”.

B6: apMNK4F (ssDNA)
DNA: GCGGATGAAGACTGGTGTACAACGGGCAGCCAGGTCTTCGTCGTGTGTGCCCTAAATACGAGCAAC
Turning to B6, the binding result with His-MNK1b (rMNK1b) [1] is given as “binds”.

Usually Kd stands for the free concentration of one partner at which half of the binding sites on the other are occupied at equilibrium, for simple one-to-one binding.
